Laboratory results: US20180171024A1

Experiments:
[1] = biological target: HLA-A2 on cells (tumor cell lines, normal primary cells, PBMCs) (human); experiment: flow cytometry, DG-75 cells, 10 µg/ml
[2] = biological target: HLA-A2 on cells (tumor cell lines, normal primary cells, PBMCs) (human); experiment: flow cytometry, HEP-G2 cells, 10 µg/ml
[3] = biological target: HLA-A2 on cells (tumor cell lines, normal primary cells, PBMCs) (human); experiment: flow cytometry, fibroblasts Fib, 10 µg/ml
[4] = biological target: HLA-A2 on other WT1 negative HLA-A2+ cells (other than 501, A498 and SKMEL; members not named); experiment: flow cytometry on JVM-2 cells (WT1 mRNA -)
[5] = biological target: HLA-A2/154 on T2 cells (human); experiment: flow cytometry, T2 cells loaded with 154 peptide
[6] = biological target: HLA-A2/CMV on T2 cells (human); experiment: flow cytometry, T2 cells loaded with CMV peptide
[7] = biological target: HLA-A2 on cells (tumor cell lines, normal primary cells, PBMCs) (human); experiment: flow cytometry, 501A melanoma cells
[8] = biological target: HLA-A2 on cells (tumor cell lines, normal primary cells, PBMCs) (human); experiment: flow cytometry, SET-2 cells, 10 µg/ml
[9] = biological target: HLA-A2 on cells (tumor cell lines, normal primary cells, PBMCs) (human); experiment: flow cytometry, WM-266-4 melanoma cells
[10] = biological target: HLA-A2/WT1 126-134 complex on T2 cells (human); experiment: flow cytometry, T2 cells loaded with WT1 [..], 10 µg/ml
[11] = biological target: HLA-A2 on HLA-A2+ cells that do not express WT1 (tumor cell lines, normal primary cells); experiment: flow cytometry on A498 cells (WT1 mRNA -)
[12] = biological target: HLA-A2/SSX-2 on T2 cells (human); experiment: flow cytometry, T2 cells loaded with SSX2 [..], 10 µg/ml
[13] = biological target: HLA-A2 on unloaded T2 cells (human); experiment: flow cytometry, unloaded T2 cells, 10 µg/ml
[14] = biological target: HLA-A2/TyrD-S1 on T2 cells (human); experiment: flow cytometry, T2 cells loaded with TyrD S1 [..], 10 µg/ml
[15] = biological target: HLA-A2/TyrD-S21 on T2 cells (human); experiment: flow cytometry, T2 cells loaded with TyrD-S21 [..], 10 µg/ml
[16] = biological target: Unloaded T2 (Homo sapiens); experiment: flow cytometry, unloaded T2 cells, PE anti-mouse
[17] = biological target: HLA-A2 on cells (tumor cell lines, normal primary cells, PBMCs) (human); experiment: flow cytometry, colonic smooth muscle cells #2940, 10 µg/ml

Question: BB7.2 (antibody) was tested. Which MFI [1] did it give?
Answer: 700

Question: And the MFI [2]?
Answer: 315

Question: And the MFI [3]?
Answer: 481

Question: What about the MFI [4] of the same substance?
Answer: 238

Question: And the MFI [5]?
Answer: 1920

Question: And the MFI [6]?
Answer: 2400

Question: And the MFI [7]?
Answer: 389

Question: What about the MFI [8] of the same substance?
Answer: 274

Question: And the MFI [9]?
Answer: 64

Question: And the MFI relative to background [10]?
Answer: 1420

Question: What about the MFI [11] of the same substance?
Answer: 350

Question: What about the MFI relative to background [12] of the same substance?
Answer: 1280

Question: What about the MFI relative to background [13] of the same substance?
Answer: 286

Question: What about the MFI relative to background [14] of the same substance?
Answer: 596

Question: And the MFI relative to background [15]?
Answer: 654

Question: And the MFI [16]?
Answer: 1050

Question: What about the MFI [17] of the same substance?
Answer: 744
